This is an account of results in the supplement of paper PMC9112550, “Optimization of the antimicrobial peptide Bac7 by deep mutational scanning” (BMC Biology, 2022).

The data set relates to Escherichia coli TOP10. In words: shrunken log2 fold change of peptide-encoding DNA abundance (4.5 h post-induction vs induction); higher = less antimicrobial activity (less host growth inhibition). Particulars: time post-induction: 4.5 h; library: site-saturation at positions 5, 18, 19, 20.
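Further: peptides expressed intracellularly from a pBAD plasmid library in pooled LB shake-flask culture, induced with 0.3% L-arabinose, DNA abundance read by NGS, three biological replicates, DESeq2 with apeglm shrinkage.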

Take RRIRWRPPRLPRPRPRPSDCPRP: the “shrunken log2 fold change” value was -0.183.
Consider RRIRVRPPRLPRPRPRPAWQPRP, for which the “shrunken log2 fold change” value was -0.00433.
As to RRIRERPPRLPRPRPRPGNEPRP, the “shrunken log2 fold change” value was -0.0966.
With RRIRDRPPRLPRPRPRPWIVPRP the figure was 0.0145.
In the case of RRIRSRPPRLPRPRPRPSWRPRP it was 0.0852; in that of RRIRLRPPRLPRPRPRPTSDPRP, 0.0874; in that of RRIRFRPPRLPRPRPRPSREPRP, 1.17.
Take RRIRYRPPRLPRPRPRPKAEPRP: the “shrunken log2 fold change” value turned out to be 0.0881.
With RRIRWRPPRLPRPRPRPLMPPRP the figure was 0.486.
On to RRIRRRPPRLPRPRPRPSQCPRP, for which the “shrunken log2 fold change” value was found to be 0.0735.
RRIRLRPPRLPRPRPRPAICPRP: the “shrunken log2 fold change” value is 0.207.
With RRIRLRPPRLPRPRPRPWQSPRP the figure was 0.0341; with RRIRNRPPRLPRPRPRPALMPRP, 0.15.
With RRIRQRPPRLPRPRPRPQILPRP, the “shrunken log2 fold change” value was -0.132.
In the case of RRIRHRPPRLPRPRPRPSVYPRP it was -0.47; in that of RRIRVRPPRLPRPRPRPYRPPRP, -0.462; in that of RRIRSRPPRLPRPRPRPWINPRP, -0.205.
Regarding RRIRIRPPRLPRPRPRPVMKPRP, the “shrunken log2 fold change” value stood at 0.012.
In the case of RRIRMRPPRLPRPRPRPFGPPRP it was -0.159; in that of RRIRSRPPRLPRPRPRPPWEPRP, 0.198; in that of RRIRQRPPRLPRPRPRPSYQPRP, -0.635.
RRIRWRPPRLPRPRPRPVATPRP: the “shrunken log2 fold change” value worked out at 0.991.
With RRIRHRPPRLPRPRPRPQFDPRP the figure was 0.0132; with RRIRQRPPRLPRPRPRPCRVPRP, -0.306.
As to RRIRQRPPRLPRPRPRPENAPRP, the “shrunken log2 fold change” value came to 0.242.
With RRIRPRPPRLPRPRPRPERGPRP the figure was 0.575.
Regarding RRIRTRPPRLPRPRPRPWGRPRP, the “shrunken log2 fold change” value was 0.00879.
For RRIRRRPPRLPRPRPRPYRWPRP, the “shrunken log2 fold change” value was -0.356.
As to RRIRARPPRLPRPRPRPKQCPRP, the “shrunken log2 fold change” value stood at 0.123.
As for RRIRCRPPRLPRPRPRPNLLPRP, the “shrunken log2 fold change” value is -0.572.
Turning to RRIRVRPPRLPRPRPRPFDKPRP, the “shrunken log2 fold change” value was -0.0577.
In the case of RRIRDRPPRLPRPRPRPRINPRP it was 0.0252; in that of RRIRIRPPRLPRPRPRPVAWPRP, -0.0525.
As for RRIRQRPPRLPRPRPRPASSPRP, the “shrunken log2 fold change” value was -0.196.
With RRIRARPPRLPRPRPRPKCDPRP the figure was 0.39.
With RRIRDRPPRLPRPRPRPWRIPRP the figure was -0.139.
With RRIRMRPPRLPRPRPRPIRDPRP the figure was -0.261; with RRIRHRPPRLPRPRPRPPPGPRP, 0.769; with RRIRGRPPRLPRPRPRPQFTPRP, 0.104.
With RRIRNRPPRLPRPRPRPEMHPRP, the “shrunken log2 fold change” value is 0.191.
For the sequence RRIRVRPPRLPRPRPRPKFIPRP, the “shrunken log2 fold change” value is -0.286.
As for RRIRKRPPRLPRPRPRPAPHPRP, the “shrunken log2 fold change” value was found to be 0.79.
With RRIRGRPPRLPRPRPRPYKRPRP, the “shrunken log2 fold change” value was -0.217.
In the case of RRIRSRPPRLPRPRPRPKAHPRP, the “shrunken log2 fold change” value was 0.277.
With RRIRMRPPRLPRPRPRPARTPRP the figure was 1.53; with RRIRRRPPRLPRPRPRPNHKPRP, -0.226; with RRIRRRPPRLPRPRPRPADVPRP, 0.146.
Consider RRIRDRPPRLPRPRPRPPRSPRP, for which the “shrunken log2 fold change” value turned out to be 1.11.
Regarding RRIRRRPPRLPRPRPRPVWEPRP, the “shrunken log2 fold change” value is 0.00461.
With RRIRGRPPRLPRPRPRPFAGPRP the figure was 0.00108; with RRIRARPPRLPRPRPRPQCNPRP, -0.104.
With RRIRCRPPRLPRPRPRPWMFPRP the figure was -0.453.
With RRIRHRPPRLPRPRPRPAWWPRP, the “shrunken log2 fold change” value is 0.157.
On to RRIRRRPPRLPRPRPRPAVNPRP, for which the “shrunken log2 fold change” value was 0.125.
With RRIRLRPPRLPRPRPRPANVPRP the figure was -0.304; with RRIRFRPPRLPRPRPRPAEGPRP, 0.234; with RRIRFRPPRLPRPRPRPGYDPRP, -0.292.
Regarding RRIRGRPPRLPRPRPRPREFPRP, the “shrunken log2 fold change” value is 1.07.
On to RRIRTRPPRLPRPRPRPLGQPRP, for which the “shrunken log2 fold change” value is -0.137.
With RRIRLRPPRLPRPRPRPLPQPRP the figure was 0.0529; with RRIRPRPPRLPRPRPRPSRFPRP, 0.227; with RRIRERPPRLPRPRPRPQFEPRP, -0.0369.
With RRIRNRPPRLPRPRPRPFFHPRP, the “shrunken log2 fold change” value was -0.446.
With RRIRSRPPRLPRPRPRPLLIPRP the figure was -0.0597; with RRIRRRPPRLPRPRPRPRNVPRP, 0.226; with RRIRVRPPRLPRPRPRPMPNPRP, -0.116.
With RRIRPRPPRLPRPRPRPFHWPRP the figure was 0.0105; with RRIRSRPPRLPRPRPRPIHRPRP, -0.172.
On to RRIRSRPPRLPRPRPRPRQMPRP, for which the “shrunken log2 fold change” value was found to be 0.38.
In the case of RRIRWRPPRLPRPRPRPQQRPRP it was -0.102.
In the case of RRIRMRPPRLPRPRPRPNYWPRP it was -0.0168; in that of RRIRQRPPRLPRPRPRPGLYPRP, 0.224; in that of RRIRDRPPRLPRPRPRPYQWPRP, 0.0508.
Take RRIRERPPRLPRPRPRPRPEPRP: the “shrunken log2 fold change” value came out at 0.314.
Turning to RRIRERPPRLPRPRPRPPDNPRP, the “shrunken log2 fold change” value is 0.197.
In the case of RRIRGRPPRLPRPRPRPWIVPRP, the “shrunken log2 fold change” value stood at 0.189.
With RRIRMRPPRLPRPRPRPNIYPRP, the “shrunken log2 fold change” value was -0.124.
In the case of RRIRPRPPRLPRPRPRPDVFPRP, the “shrunken log2 fold change” value is -0.203.
For RRIRCRPPRLPRPRPRPANLPRP, the “shrunken log2 fold change” value was -0.687.
In the case of RRIRTRPPRLPRPRPRPSWAPRP it was 0.195.
With RRIRSRPPRLPRPRPRPCSTPRP the figure was 0.129; with RRIRNRPPRLPRPRPRPIIHPRP, -0.712; with RRIRFRPPRLPRPRPRPPFLPRP, -0.0645.
For RRIRFRPPRLPRPRPRPTNAPRP, the “shrunken log2 fold change” value was -0.143.
With RRIRNRPPRLPRPRPRPYSGPRP the figure was 0.00884; with RRIRFRPPRLPRPRPRPWKAPRP, 0.0062.
With RRIRTRPPRLPRPRPRPNMMPRP the figure was -0.237; with RRIRYRPPRLPRPRPRPFHFPRP, -0.19; with RRIRSRPPRLPRPRPRPPIQPRP, 0.0395.
With RRIRWRPPRLPRPRPRPFMPPRP, the “shrunken log2 fold change” value was -0.714.
In the case of RRIRLRPPRLPRPRPRPQMAPRP it was -0.0634.
